Laboratory results: patent publication US10822618B2, “Method of using a transgenic mouse with alpha-one antitrypsin (ATT) deficiency to screen compounds” (University of Massachusetts, priority 2016, dated 2020)

T1: neutrophil elastase (Homo sapiens, UniProt P08246)
T1 sequence (P08246 30-267): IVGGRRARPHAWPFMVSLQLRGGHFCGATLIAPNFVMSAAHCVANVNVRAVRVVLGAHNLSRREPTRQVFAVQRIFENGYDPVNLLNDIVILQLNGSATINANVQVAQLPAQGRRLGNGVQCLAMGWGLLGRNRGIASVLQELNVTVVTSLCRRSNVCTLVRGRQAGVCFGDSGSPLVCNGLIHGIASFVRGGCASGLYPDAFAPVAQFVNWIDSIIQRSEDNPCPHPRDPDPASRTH

B1: AAT 1-1: murine α-1-antitrypsin protein corresponding to one of the Serpina1 genes (A-E) (protein, UniProt P07758 25-413, looked up)
Alpha-1-antitrypsin 1-1: EDVQETDTSQKDQSPASHEIATNLGDFAISLYRELVHQSNTSNIFFSPVSIATAFAMLSLGSKGDTHTQILEGLQFNLTQTSEADIHKSFQHLLQTLNRPDSELQLSTGNGLFVNNDLKLVEKFLEEAKNHYQAEVFSVNFAESEEAKKVINDFVEKGTQGKIAEAVKKLDQDTVFALANYILFKGKWKKPFDPENTEEAEFHVDESTTVKVPMMTLSGMLHVHHCSTLSSWVLLMDYAGNATAVFLLPDDGKMQHLEQTLSKELISKFLLNRRRRLAQIHFPRLSISGEYNLKTLMSPLGITRIFNNGADLSGITEENAPLKLSQAVHKAVLTIDETGTEAAAVTVLQMVPMSMPPILRFDHPFLFIIFEEHTQSPIFLGKVVDPTHK
B2: AAT 1-4: murine α-1-antitrypsin protein corresponding to one of the Serpina1 genes (A-E) (protein, UniProt Q00897 25-413, looked up)
Alpha-1-antitrypsin 1-4: EDVQETDTSQKDQSPASHEIATNLGDFALRLYRELVHQSNTSNIFFSPVSIATAFAMLSLGSKGDTHTQILEGLQFNLTQTSEADIHKSFQHLLQTLNRPDSELQLSTGNGLFVNNDLKLVEKFLEEAKNHYQAEVFSVNFAESEEAKKVINDFVEKGTQGKIVEAVKKLDQDTVFALANYILFKGKWKQPFDPENTEEAEFHVDESTTVKVPMMTLSGMLDVHHCSMLSSWVLLMDYAGNTTAVFLLPDDGKMQHLEQTLNKELISQFLLNRRRSDAQIHIPRLSISGNYNLKTLMSPLGITRIFNNGADLSGITEENAPLKLSKAVHKAVLTIDETGTEAAAATVLQVATYSMPPIVRFDHPFLFIIFEEHTQSPIFVGKVVDPTHK
B3: AAT 1-3: murine α-1-antitrypsin protein corresponding to one of the Serpina1 genes (A-E) (protein, UniProt Q00896 25-412, looked up)
Alpha-1-antitrypsin 1-3: EDVQETDTSQKDQSPASHEIATNLGDFAISLYRELVHQSNTSNIFFSPVSIATAFAMLSLGSKGDTHTQILEGLQFNLTQTSEADIHKSFQHLLQTLNRPDSELQLSTGNGLFVNNDLKLVEKFLEEAKNHYQAEVFSVNFAESEEAKKVINDFVEKGTQGKIVEAVKKLDQDTVFALANYILFKGKWKKPFDPENTEEAEFHVDESTTVKVPMMTLSGMLDVHHCSTLSSWVLLMDYAGNATAVFLLPDDGKMQHLEQTLSKELISKFLLNRRRRLAQIHFPRLSISGEYNLKTLMSPLGITRIFNNGADLSGITEENAPLKLSQAVHKAVLTIDETGTEAAAVTVLLAVPYSMPPILRFDHPFLFIIFEEHTQSPLFVGKVVDPTH
B4: AAT 1-2: murine α-1-antitrypsin protein corresponding to one of the Serpina1 genes (A-E) (protein, UniProt P22599 25-413, looked up)
Alpha-1-antitrypsin 1-2: EDVQETDTSQKDQSPASHEIATNLGDFAISLYRELVHQSNTSNIFFSPVSIATAFAMLSLGSKGDTHTQILEGLQFNLTQTSEADIHKSFQHLLQTLNRPDSELQLSTGNGLFVNNDLKLVEKFLEEAKNHYQAEVFSVNFAESEEAKKVINDFVEKGTQGKIVEAVKELDQDTVFALANYILFKGKWKKPFDPENTEEAEFHVDKSTTVKVPMMMLSGMLDVHHCSILSSWVLLMDYAGNASAVFLLPEDGKMQHLEQTLNKELISKILLNRRRRLVQIHIPRLSISGDYNLKTLMSPLGITRIFNNGADLSGITEENAPLKLSKAVHKAVLTIDETGTEAAAATVFEAVPMSMPPILRFDHPFLFIIFEEHTQSPIFVGKVVDPTHK

What was measured:
[1] = Respiratory phenotype in response to intratracheal PPE; assay type: in vivo, mice; settings: intratracheal dose of 0.33 IU; FIG. 7
Source text: FIG. 7. Respiratory phenotype in response to a low and high dose of PPE.

pancreatic elastase = pancreatic elastase (Sus scrofa, UniProt P00772); settings: murine AAT protein, C57BL/6J; cited from earlier work
neutrophil elastase = target: T1, neutrophil elastase; settings: murine AAT protein, C57BL/6J; cited from earlier work

Sequence of pancreatic elastase (P00772 27-266): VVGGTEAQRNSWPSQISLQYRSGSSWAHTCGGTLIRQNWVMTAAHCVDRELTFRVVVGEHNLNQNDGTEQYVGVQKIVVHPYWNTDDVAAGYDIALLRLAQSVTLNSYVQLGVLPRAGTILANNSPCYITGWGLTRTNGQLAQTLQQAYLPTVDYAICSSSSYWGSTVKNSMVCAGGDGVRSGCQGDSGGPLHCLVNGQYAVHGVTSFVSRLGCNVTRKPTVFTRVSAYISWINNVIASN

Molecule | respiratory phenotype [1] | inhibition of pancreatic elastase (pancreatic elastase) | inhibition of neutrophil elastase (neutrophil elastase)
PPE: porcine pancreatic elastase | a stronger phenotype is induced | – | –
B1 | – | inhibit | inhibit
B2 | – | do not | do not
B3 | – | do not | do not
B4 | – | inhibit | inhibit
